Source: PMC9250616 (Angiogenesis, 2022)

Experiments:
Collagen I = assay: ELISA
Collagen VI = assay: ELISA
Collagen VI, sequence (P12109 20-1028, chain 1 of 3): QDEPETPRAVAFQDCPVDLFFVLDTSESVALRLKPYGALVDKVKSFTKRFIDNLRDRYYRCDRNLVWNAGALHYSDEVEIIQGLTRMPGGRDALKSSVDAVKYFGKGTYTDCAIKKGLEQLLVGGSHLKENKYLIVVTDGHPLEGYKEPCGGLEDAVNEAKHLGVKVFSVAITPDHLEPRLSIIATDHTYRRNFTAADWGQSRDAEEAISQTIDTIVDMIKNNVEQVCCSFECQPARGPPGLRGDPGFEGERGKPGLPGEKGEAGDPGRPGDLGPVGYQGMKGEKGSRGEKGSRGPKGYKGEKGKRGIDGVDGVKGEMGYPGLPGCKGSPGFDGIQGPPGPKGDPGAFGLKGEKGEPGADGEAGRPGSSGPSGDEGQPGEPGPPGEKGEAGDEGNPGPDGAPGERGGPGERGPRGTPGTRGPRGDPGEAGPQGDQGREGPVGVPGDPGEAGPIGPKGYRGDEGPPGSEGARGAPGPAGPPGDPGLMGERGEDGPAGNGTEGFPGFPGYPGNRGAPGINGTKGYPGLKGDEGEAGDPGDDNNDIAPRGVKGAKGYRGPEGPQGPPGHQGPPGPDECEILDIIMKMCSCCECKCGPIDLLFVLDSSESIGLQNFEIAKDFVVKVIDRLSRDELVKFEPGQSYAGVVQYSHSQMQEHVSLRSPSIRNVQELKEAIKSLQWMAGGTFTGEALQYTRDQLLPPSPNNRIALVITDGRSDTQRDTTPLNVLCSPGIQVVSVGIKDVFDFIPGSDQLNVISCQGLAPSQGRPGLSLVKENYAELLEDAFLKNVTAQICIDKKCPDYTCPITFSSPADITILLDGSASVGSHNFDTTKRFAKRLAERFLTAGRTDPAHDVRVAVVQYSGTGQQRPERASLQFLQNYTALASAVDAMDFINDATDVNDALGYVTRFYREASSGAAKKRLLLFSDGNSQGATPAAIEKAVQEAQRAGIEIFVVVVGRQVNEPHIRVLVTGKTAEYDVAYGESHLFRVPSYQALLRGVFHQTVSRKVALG
Collagen VI, sequence (P12110 21-1019, chain 2 of 3, further chain): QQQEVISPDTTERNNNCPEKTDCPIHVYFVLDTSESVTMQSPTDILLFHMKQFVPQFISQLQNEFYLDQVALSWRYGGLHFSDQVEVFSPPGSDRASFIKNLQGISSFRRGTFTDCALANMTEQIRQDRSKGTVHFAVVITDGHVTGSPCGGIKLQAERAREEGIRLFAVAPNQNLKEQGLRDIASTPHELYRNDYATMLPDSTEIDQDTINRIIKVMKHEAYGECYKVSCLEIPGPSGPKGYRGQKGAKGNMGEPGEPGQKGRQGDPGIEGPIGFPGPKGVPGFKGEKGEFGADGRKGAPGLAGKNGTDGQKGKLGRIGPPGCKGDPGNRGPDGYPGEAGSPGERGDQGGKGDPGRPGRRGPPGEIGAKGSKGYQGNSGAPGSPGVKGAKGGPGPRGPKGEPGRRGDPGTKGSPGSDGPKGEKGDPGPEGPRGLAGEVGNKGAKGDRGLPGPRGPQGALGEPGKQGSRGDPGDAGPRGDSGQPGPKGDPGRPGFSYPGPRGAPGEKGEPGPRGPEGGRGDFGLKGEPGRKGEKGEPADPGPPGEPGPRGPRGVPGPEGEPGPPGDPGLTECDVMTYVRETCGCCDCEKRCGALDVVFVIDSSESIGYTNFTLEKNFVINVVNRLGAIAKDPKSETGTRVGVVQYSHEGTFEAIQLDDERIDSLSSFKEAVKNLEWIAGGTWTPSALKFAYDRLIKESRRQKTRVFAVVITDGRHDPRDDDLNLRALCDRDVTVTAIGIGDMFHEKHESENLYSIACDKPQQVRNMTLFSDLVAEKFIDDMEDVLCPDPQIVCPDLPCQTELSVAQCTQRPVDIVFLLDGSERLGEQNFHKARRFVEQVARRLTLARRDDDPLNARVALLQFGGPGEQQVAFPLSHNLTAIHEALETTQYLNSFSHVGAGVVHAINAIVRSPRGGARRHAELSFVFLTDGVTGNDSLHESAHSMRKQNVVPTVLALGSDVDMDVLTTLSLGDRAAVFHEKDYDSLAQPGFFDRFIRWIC
Collagen VI, sequence (P12111 26-3177, chain 3 of 3, further chain): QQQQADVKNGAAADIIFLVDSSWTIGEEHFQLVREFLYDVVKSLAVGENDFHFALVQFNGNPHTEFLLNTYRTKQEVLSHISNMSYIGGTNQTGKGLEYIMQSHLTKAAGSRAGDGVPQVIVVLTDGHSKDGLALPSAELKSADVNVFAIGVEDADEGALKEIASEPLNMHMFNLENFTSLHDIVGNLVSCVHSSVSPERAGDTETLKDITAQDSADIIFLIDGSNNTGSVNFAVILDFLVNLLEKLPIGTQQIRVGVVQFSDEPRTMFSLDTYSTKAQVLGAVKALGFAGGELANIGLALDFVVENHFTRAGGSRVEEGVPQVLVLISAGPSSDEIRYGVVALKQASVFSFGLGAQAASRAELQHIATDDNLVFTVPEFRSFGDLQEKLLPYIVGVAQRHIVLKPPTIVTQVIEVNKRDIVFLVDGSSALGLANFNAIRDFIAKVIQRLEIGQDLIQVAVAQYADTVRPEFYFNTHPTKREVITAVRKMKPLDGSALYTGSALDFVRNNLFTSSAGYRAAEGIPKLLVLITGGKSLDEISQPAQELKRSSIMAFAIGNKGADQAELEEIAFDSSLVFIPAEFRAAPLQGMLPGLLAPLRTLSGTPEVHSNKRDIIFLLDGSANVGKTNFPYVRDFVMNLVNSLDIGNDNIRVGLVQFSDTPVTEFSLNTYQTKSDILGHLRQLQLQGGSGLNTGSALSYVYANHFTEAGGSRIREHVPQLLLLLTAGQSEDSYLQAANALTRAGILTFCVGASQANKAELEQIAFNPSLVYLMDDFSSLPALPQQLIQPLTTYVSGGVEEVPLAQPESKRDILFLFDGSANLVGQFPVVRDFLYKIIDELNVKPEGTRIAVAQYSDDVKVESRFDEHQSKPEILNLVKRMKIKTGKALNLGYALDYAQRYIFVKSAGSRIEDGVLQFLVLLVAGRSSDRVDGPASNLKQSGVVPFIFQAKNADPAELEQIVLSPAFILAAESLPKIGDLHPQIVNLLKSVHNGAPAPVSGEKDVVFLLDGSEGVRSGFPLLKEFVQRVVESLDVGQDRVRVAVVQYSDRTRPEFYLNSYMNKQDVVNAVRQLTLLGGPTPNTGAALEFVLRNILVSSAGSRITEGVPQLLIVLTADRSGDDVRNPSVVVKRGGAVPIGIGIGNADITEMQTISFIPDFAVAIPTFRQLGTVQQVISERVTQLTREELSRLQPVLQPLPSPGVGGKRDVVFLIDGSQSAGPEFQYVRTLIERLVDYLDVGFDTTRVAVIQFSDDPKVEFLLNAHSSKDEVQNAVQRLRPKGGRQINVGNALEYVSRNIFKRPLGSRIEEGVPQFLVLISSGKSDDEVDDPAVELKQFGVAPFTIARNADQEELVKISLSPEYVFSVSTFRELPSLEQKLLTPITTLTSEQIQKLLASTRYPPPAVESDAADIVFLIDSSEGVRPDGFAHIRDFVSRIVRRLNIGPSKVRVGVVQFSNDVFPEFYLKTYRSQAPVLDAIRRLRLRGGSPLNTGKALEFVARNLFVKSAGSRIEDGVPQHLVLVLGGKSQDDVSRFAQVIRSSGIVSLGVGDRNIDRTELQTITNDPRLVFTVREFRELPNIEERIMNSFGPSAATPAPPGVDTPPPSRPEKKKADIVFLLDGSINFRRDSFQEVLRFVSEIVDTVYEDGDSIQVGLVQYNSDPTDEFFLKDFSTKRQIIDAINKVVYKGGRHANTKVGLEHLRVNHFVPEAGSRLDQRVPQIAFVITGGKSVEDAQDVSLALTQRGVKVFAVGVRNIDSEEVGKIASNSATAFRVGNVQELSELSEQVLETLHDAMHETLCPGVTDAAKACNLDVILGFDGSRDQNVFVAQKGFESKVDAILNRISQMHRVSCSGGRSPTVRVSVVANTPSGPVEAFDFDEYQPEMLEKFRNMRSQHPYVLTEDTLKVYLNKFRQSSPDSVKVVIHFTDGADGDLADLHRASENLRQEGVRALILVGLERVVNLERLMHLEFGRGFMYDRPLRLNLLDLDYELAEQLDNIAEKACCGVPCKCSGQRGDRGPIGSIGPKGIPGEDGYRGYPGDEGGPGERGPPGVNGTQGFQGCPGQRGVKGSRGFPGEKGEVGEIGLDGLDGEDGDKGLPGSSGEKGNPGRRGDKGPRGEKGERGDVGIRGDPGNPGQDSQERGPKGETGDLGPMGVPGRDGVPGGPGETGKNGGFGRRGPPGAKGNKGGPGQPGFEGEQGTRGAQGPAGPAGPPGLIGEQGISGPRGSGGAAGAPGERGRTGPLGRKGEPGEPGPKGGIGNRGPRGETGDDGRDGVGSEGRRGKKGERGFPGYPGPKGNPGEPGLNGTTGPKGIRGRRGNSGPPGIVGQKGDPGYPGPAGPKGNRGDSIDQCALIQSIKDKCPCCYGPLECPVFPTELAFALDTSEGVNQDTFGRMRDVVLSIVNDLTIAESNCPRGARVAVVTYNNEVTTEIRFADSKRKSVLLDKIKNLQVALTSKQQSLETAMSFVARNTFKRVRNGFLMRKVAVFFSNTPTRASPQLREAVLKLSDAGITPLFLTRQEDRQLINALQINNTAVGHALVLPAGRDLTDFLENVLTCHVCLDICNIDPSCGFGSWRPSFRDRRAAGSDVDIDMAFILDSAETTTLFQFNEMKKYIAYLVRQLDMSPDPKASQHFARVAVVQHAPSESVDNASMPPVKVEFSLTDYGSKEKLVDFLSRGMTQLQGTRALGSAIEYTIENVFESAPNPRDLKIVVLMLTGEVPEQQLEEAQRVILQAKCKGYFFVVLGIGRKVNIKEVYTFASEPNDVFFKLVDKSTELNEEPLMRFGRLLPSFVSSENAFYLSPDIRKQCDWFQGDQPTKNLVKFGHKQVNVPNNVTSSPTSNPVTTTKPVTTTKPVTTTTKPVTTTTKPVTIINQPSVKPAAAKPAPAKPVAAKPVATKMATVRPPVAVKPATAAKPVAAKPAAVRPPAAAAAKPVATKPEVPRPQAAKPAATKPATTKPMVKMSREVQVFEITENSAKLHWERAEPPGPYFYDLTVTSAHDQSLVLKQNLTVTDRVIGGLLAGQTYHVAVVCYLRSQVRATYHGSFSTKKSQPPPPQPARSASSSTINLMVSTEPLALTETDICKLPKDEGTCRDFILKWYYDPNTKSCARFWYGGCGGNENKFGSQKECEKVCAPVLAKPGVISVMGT

B1: biotinylated CMG2-AviTag construct (capillary morphogenesis gene 2, anthrax toxin receptor 2) (receptor)
chain: not shown
modifications: biotin (biotinylated CMG2-AviTag construct)
- Kd (Collagen I): 0.5 µM
- Kd (Collagen VI): 0.8 µM
